From the supplement of paper PMC7125110
± gives the standard error. For some of these results: Fewer inactive variants are shown than the library holds.

B1: glmS ribozyme (parent)
chain: AUAAAAGCGCCAGAACUACAGAAAUGUAGUUGACGAGGAGGAGGUUUAUCGAAUUUUCGGCGGAUGCCUCCAAA

What was measured:
Conditions in all cases: with glucosamine-6-phosphate
glucosamine-6-phosphate [1] = variants of: B1; experiment: kcat; higher = faster cleavage; RNA array
Summary of the method: (§1)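 kobs was derived by fitting per-tile medians to one- or two-exponential decays after normalising signals to baseline and to non-cleaving reference variants. Those signals came from barcoded ribozyme variants transcribed in situ by E. coli RNA polymerase on sequenced MiSeq chips, followed through a hybridised Cy3 probe at 37 °C and imaged over ~14 h. Glucosamine-6-phosphate (40 μM to 10 mM) in HEPES/KCl/Mg(OAc)2 buffer was flowed in. Weighted Michaelis–Menten fits across concentrations then gave kcat and KM.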

glucosamine-6-phosphate [2] = variants of: B1; experiment: KM; higher = weaker cofactor use; RNA array
Summary of the method: as §1

glucosamine-6-phosphate [3] = variants of: B1; experiment: self-cleavage kobs at 40 uM GlcN6P; higher = faster cleavage; RNA array
Summary of the method: as §1

glucosamine-6-phosphate [4] = variants of: B1; experiment: self-cleavage kobs at 160 uM GlcN6P; higher = faster cleavage; RNA array
Summary of the method: as §1

glucosamine-6-phosphate [5] = variants of: B1; experiment: self-cleavage kobs at 10000 uM GlcN6P; higher = faster cleavage; RNA array
Summary of the method: as §1

glucosamine-6-phosphate [6] = variants of: B1; experiment: self-cleavage kobs at 2500 uM GlcN6P; higher = faster cleavage; RNA array
Summary of the method: as §1

glucosamine-6-phosphate [7] = variants of: B1; experiment: self-cleavage kobs at 640 uM GlcN6P; higher = faster cleavage; RNA array
Summary of the method: as §1

| Variant | kcat (glucosamine-6-phosphate [1]) [s⁻¹] | KM (glucosamine-6-phosphate [2]) [µM] | self-cleavage kobs at 40 uM GlcN6P (glucosamine-6-phosphate [3]) [s⁻¹] | self-cleavage kobs at 160 uM GlcN6P (glucosamine-6-phosphate [4]) [s⁻¹] | self-cleavage kobs at 10000 uM GlcN6P (glucosamine-6-phosphate [5]) [s⁻¹] | self-cleavage kobs at 2500 uM GlcN6P (glucosamine-6-phosphate [6]) [s⁻¹] | self-cleavage kobs at 640 uM GlcN6P (glucosamine-6-phosphate [7]) [s⁻¹] |
| --- | --- | --- | --- | --- | --- | --- | --- |
| A14U G59A | 6.06e-05 ± 3.3e-06 | 9990 ± 1000 | < 1e-05 | < 1e-05 | 3.03e-05 ± 1.1e-05 | – | – |
| A14C U30C | 1.53e-05 ± 3.1e-07 | 151 ± 50 | – | < 1e-05 | – | – | – |
| A14G A33G | < 1e-05 | – | < 1e-05 | < 1e-05 | < 1e-05 | < 1e-05 | – |
| A15G C68A | 6.63e-05 ± 4.7e-06 | 131 ± 49 | – | 3.62e-05 ± 9e-06 | 6.03e-05 ± 9.3e-06 | 7.32e-05 ± 1.2e-05 | 5.49e-05 ± 1.2e-05 |
| A15G C68U | 0.00322 ± 0.00055 | 1130 ± 300 | 0.000128 ± 1.5e-05 | 0.00032 ± 7.2e-05 | 0.00316 ± 0.00032 | 0.00139 ± 0.00047 | 0.00112 ± 0.00019 |
| A14G G37A U54A | 0.00578 ± 0.0027 | – | 7.89e-05 ± 1.6e-05 | – | 0.00406 ± 0.00062 | 0.00178 ± 0.00043 | 0.000505 ± 0.00013 |
| A14C U49G | 0.000151 ± 5.2e-06 | 6690 ± 570 | – | – | 9.07e-05 ± 1.3e-05 | – | – |
| A15C U47A | 0.00412 ± 0.0012 | 2080 ± 870 | 0.000116 ± 1.4e-05 | 0.000266 ± 5.3e-05 | 0.00367 ± 0.00044 | 0.00226 ± 0.00034 | 0.000773 ± 0.00011 |
| A15C U47G | 0.000994 ± 5.2e-05 | 1270 ± 120 | 3.18e-05 ± 7.5e-06 | 0.000121 ± 2e-05 | 0.000889 ± 9.5e-05 | 0.000675 ± 8.1e-05 | 0.000312 ± 3.6e-05 |
| A14C G44C C67G | 0.00155 ± 0.00052 | – | 3.15e-05 ± 1.2e-05 | – | 0.00139 ± 0.00022 | 0.000548 ± 0.00015 | 0.000389 ± 0.0001 |
| A15G G66U | 0.00552 ± 0.0016 | 5370 ± 2200 | 6.81e-05 ± 1.4e-05 | 0.000169 ± 3.6e-05 | 0.00374 ± 0.00049 | 0.00161 ± 0.00029 | 0.000492 ± 9.7e-05 |
| A15G G66C | 0.000786 ± 0.00011 | 833 ± 220 | 3.37e-05 ± 1.1e-05 | 0.000115 ± 2.5e-05 | 0.000649 ± 9.7e-05 | 0.000793 ± 0.00014 | 0.000368 ± 6e-05 |
| A14U G37U G63U | < 1e-05 | – | < 1e-05 | – | – | – | – |
| A14U A33U | 0.000182 ± 2.6e-05 | – | – | – | 7.63e-05 ± 9.8e-06 | 2.81e-05 ± 1e-05 | – |
| A15G G59U | 0.000115 ± 2.5e-05 | – | – | – | 9.05e-05 ± 1.6e-05 | 4.46e-05 ± 1.4e-05 | 2.79e-05 ± 1.3e-05 |
